Substrate in data set [1]: OC[C@H]1O[C@@H](O[C@H]2[C@H](O)[C@H](O)[C@H](O[C@H]3[C@H](O)[C@H](O)C(O)O[C@@H]3CO)O[C@@H]2CO)[C@@H](O)[C@@H](O)[C@@H]1O
The data set can be described thus: purified protein, by the assay type. Particulars: other: Man5B 3 nM, oligosaccharide 30 μM, citrate buffer 50 mM, pH 5.5, 5 min, triplicate.

Substrate in data set [2]: O=[N+]([O-])c1ccc(O[C@@H]2O[C@H](CO)[C@@H](O[C@@H]3O[C@H](CO)[C@@H](O)[C@H](O)[C@H]3O)[C@H](O)[C@H]2O)cc1
The data set can be described thus: Kinetic properties with pNP-linked sugars (Man5B wild type). The format is biochemical, Caldanaerobius polysaccharolyticus. To be noted: other: wild type Man5B 5 nM, substrate 0.06 to 10 mM, 65° C., citrate buffer pH 5.5. The method, then:
(§1) The plasmid constructs were then introduced into E. coli BL-21 CodonPlus (DE3) RIL competent cells by heat shock, and grown overnight in lysogeny broth (LB) agar medium supplemented with ampicillin (100 μg/mL) and chloramphenicol (50 μg/mL) at 37° C. After 12 h, single colonies were selected and used to inoculate fresh LB (10 mL) supplemented with the antibiotics above at the same concentrations, followed by culturing with aeration for 8 h at 37° C. The pre-cultures were then inoculated into fresh LB (1 L) supplemented with ampicillin and chloramphenicol and the cultures were incubated at 37° C. with vigorous aeration (225 rpm/min). The cultures were grown to an optical density of 0.3 at 600 nm, and the temperature was shifted to 16° C. and gene expression was induced by the addition of 0.1 mM isopropyl β-D-thiogalactopyranoside (IPTG). After 16 h of growth, the cells were harvested by centrifugation (4000×g, […], 4° C.), the cell pellets were then re-suspended in 30 mL lysis buffer (50 mM Tris-HCl, 300 mM NaCl, pH 7.0), and ruptured by two passages through an EmulsiFlex C-3 cell homogenizer from Avestin (Ottawa, Canada). The cell lysate was then clarified by centrifugation at 20,000×g for 30 min at 4° C. to remove cell debris. The lysate containing recombinant protein was then incubated at 65° C. for 30 min, and centrifuged at 20,000×g for 15 min at 4° C. to remove heat labile E. coli proteins. The recombinant proteins were then purified from the heat treated supernatant using the Talon Metal Affinity Resin according to the supplier's protocol, with the exception that Tris-based binding (50 mM Tris-HCl, 300 mM NaCl, pH 7.5), and elution (50 mM Tris-HCl, 300 mM NaCl, 250 mM Imidazole, pH 7.5) buffers were employed. Aliquots of eluted fractions were analyzed by sodium dodecyl sulfate-polyacrylamide gel electrophoresis (SDS-PAGE) and protein bands were visualized by staining with Coomassie brilliant blue G-250. Elution fractions were pooled and the proteins were then exchanged into protein storage buffer (50 mM Tris-HCl, 150 mM NaCl, pH 7.5) by three successive concentration and dilution cycles with Amicon Ultra-15 centrifugal filter units (Man5A-TM1, Man5A-TM2, 50,000 MWCO; Man5B,10,000 MWCO). The UV absorbances of the protein solutions were recorded at 280 nm using a Nanoprop 1000 from Thermo Scientific (Waltham, Mass.) and the protein concentrations were calculated using the following extinction coefficients: Man5A-TM1, ε280 nm=189 mM^−1 cm^−1; Man5A-TM2, ε280 nm=113 mM^−1 cm^−1; Man5B, ε280 nm=103 mM^−1 cm^−1.
(§2) Determination of kinetic properties for wild type and mutant Man5B with pNP-linked sugars. Kinetic properties of wild type and mutant Man5B were determined for pNP-β-D-mannopyranoside and pNP-β-D-cellobioside. The substrate concentrations ranged from 0.06 to 10 mM and reactions were performed at 65° C. in citrate buffer (50 mM sodium citrate, pH 5.5). The reactions were equilibrated to 65° C. using a thermostated Cary 300 UV-Vis spectrophotometer, and the reactions were initiated by the addition of wild type (5 nM, final concentration) or mutant (2 μM, final concentration) Man5B. The rate of pNP release was determined by continuously monitoring the absorbance at 400 nm. Initial rate data were then plotted against the substrate concentrations, and the values of the Michaelis-Menten constant (KM) and the maximum velocity (Vmax) were estimated from a nonlinear curve fit using GraphPad Prism v5.01 from GraphPad Software (San Diego, Calif.). The kcat was calculated as the quotient of the Vmax and the concentration of enzyme used in the reaction.
(§3) Next, to test whether the mutations introduced in Man5B had any effects on the catalytic activity of this enzyme, the catalytic parameters for the wild type and mutant enzymes were determined using pNP-β-D-cellobioside and pNP-β-D-mannopyranoside as substrates.

Substrate in data set [3]: O=[N+]([O-])c1ccc(O[C@@H]2O[C@H](CO)[C@@H](O)[C@H](O)[C@@H]2O)cc1
The data set is described as above. The format is biochemical, Caldanaerobius polysaccharolyticus. To be noted: other: wild type Man5B 5 nM, substrate 0.06 to 10 mM, 65° C., citrate buffer pH 5.5. The procedure:
as §1, §2, §3

B1: Caldanaerobius polysaccharolyticus endo-β-mannanase Man5B, wild type, SEQ ID NO: 31 (Caldanaerobius polysaccharolyticus) (protein)
chain: MKKYGFNFQWMYVWEEGREPEPPDKKALDFLAETGFNFVRIPVDYRFWTRNFDYFNPDKKVFEYIDLYLRECSARNIHMCLNLHRAPGYCINRNDIERDNLWLDKRAQDGFVYQWELFAKRYKGVSSKFLSFDLVNEPPNIGQYGLTRENHASLIIRTVEAIRKIDPDREIVIDGLGGGNIAMPELAHLGVVHSGRGYQPMALTHYQASWWDGHKGLPEPYYPDLLWQGKVWNKDTLREYYKPWRDLQQKGVNVHIGEFGCFNKTSNDVAIRWFEDVLSLYKEFEWGYSLWNFKGPFGIVEHGRPGAKYEYYRGFKVDRELLDLLVENRV
Regarding B1, the figures for the catalytic efficiency (kcat/Km) in data set [1], in data set [2] and in data set [3] were 270 ± 50 M⁻¹ s⁻¹, 25000 ± 2000 M⁻¹ s⁻¹ and 1600 ± 100 M⁻¹ s⁻¹, respectively. Besides, the Km result in data set [2] is “(9.7 ± 1) × 10^−2 mM”; in data set [3] it was 26 ± 4 mM. In addition, the kcat in data set [2] is 2.4 ± 0.1 s⁻¹; in data set [3], 42 ± 3 s⁻¹.

The values above are taken from patent US8357518B2, “Thermostable enzymes for the hydrolysis of mannan-containing polysaccharides” (The Board of Trustees of the University of Illinois, priority 2010, dated 2013).
